Assay [1] concerns the target mIL-2:S4B6 immunocomplex (mouse | not stated) (UniProt P04351). As to the kind of experiment: SPR. (In general: In SPR one partner is held on a chip, and binding of the other changes the refractive index at the surface.)
Assay [2] has as its target IL-2Rβ/IL-2Rγ (Homo sapiens) (UniProt P14784). The note with it: cited from earlier work.
The target in assay [3] is mouse interleukin-2 displayed on the surface of yeast (mouse, UniProt P04351). Briefly: flow cytometry on cells. On the technique in general: A flow cytometer gives signals particle by particle.
Assay [4] deals with mouse interleukin-2 (mouse) (UniProt P04351).

Turning to “mouse interleukin-2 receptor-β (from UniProt P16297 27-240)”, the fold enhancement of binding over free mIL-2 in assay [1] is 6 fold. The term Kd denotes the concentration at which binding is half-saturated. Regarding IL-2 (from UniProt P60568), the Kd in assay [2] is 1 nM.

B1: JES6-1 antibody (antibody, V domains shown)
VH: EIQLQQSGPELRRPGSSVKLSCKASGYNITDYLIHWVRHRPEHGLEWIGWIDPEDGETRYAQKFQSKATLTADTSSNAAYMQLSSLTPEDTATYFCARSLDSTYIYPFAYWGQGTLVTVSS
VL: DIVMTQSPFSLAVSEGEMVTINCKSSQSLLSSGNQKNYLAWYQQKPGQSPKLLIYYASTGQSGVPDRFIGSGSGTDFTLTISDVQAEDLADYYCLQHYISPPTFGAGTKLELK
Take B1: in assay [3], the binding result is reported as “binds”.

B2: S4B6 antibody (antibody, V domains shown)
VH: EVQLQESGAELVRPGTSVKLSCKVSGDTITAYYLHFVRQRPGQGLEWIGRIDPEDDSTKYAENFKNKATFTADASSNTAYLRLSSLTSEDTATYFCTTVTFYYSRELRWFAYWGQGTLVTVSS
VL: DIQVTQSPASLSASLEEIVTITCQASQDIGNYLSWYQQKLGKSPQLLIHSATSLADGVPSRFSGSRSGTQYSLKINRLQVEDTGIYYCLQHYSTPYTFGAGTKLELK
Take B2: the fold higher apparent affinity than the monovalent form in assay [4] is more than 25 fold. The binding result in assay [3] is given as “binds”.

The values above are taken from article PMC4439582 (Immunity, 2015).
